Reference: the supplement of paper PMC10724198
± gives the standard deviation of the averaged measurements.

What follows are sequences tested on Saccharomyces cerevisiae (assay: protein stability index of tFT-peptide fusion (C-terminal peptide) (PSI (0-1 scale)); higher = more stable (slower turnover)). Settings: genetic background: wild type; temperature: 30 C.
Experimental: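 Multiplexed protein stability (MPS) profiling in S. cerevisiae. Random 12-aa peptides (tFT-X12 library) are fused to the C-terminus of a sfGFP-mCherry tandem fluorescent timer, after mCherry and a GGGS linker. Cells are FACS-sorted into 8 mCherry/sfGFP bins and deep-sequenced. The protein stability index (PSI) is the read-weighted bin average, scaled from 0 (unstable) to 1 (stable). Only peptides with >10 reads are reported; cells were grown at 30 °C in SC-His with glucose.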
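Note: PSI is a weighted mean of sequencing reads over stability bins, variants kept only with over 10 reads, mCherry proximal and sfGFP distal, peptide attached via GGGS linker.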

Sequence	protein stability index
PCLSRPSTPPSS	0.674 ± 0.036
AVVGCGGGWWWA	0.715 ± 0.13
CLRRRSLSPLFI	0.7252 ± 0.0057
LQRVPTDAVPDC	0.7074 ± 0.0044
RFPPFSFAPCLI	0.712 ± 0.035
EETGWGVVWVVR	0.703 ± 0.037
EKNKKDKNIIIG	0.681 ± 0.04
VGFSLGGFLFLF	0.585 ± 0.096
MPGYLIRPPVIS	0.709 ± 0.0078
FFDKLEIRALVV	0.6302 ± 0.00098
KMSRKIKIRERG	0.658 ± 0.016
LAQLPPSLRFPP	0.72 ± 0.1
SLDISDCGFCLH	0.697 ± 0.018
LLTCRPPQCLLC	0.6303 ± 0.0038
IWTRAFAPSNRF	0.715 ± 0.02
PPPLSLLPPCSP	0.678 ± 0.12
CYGAYLVSQWGS	0.697 ± 0.028
LRGVACCSPILG	0.631 ± 0.036
DGPRPPRPSPVP	0.699 ± 0.04
FRDLRSSVLVLP	0.6599 ± 0.0058
ENPVVRSGAVGS	0.698 ± 0.031
LPPSPILFPASP	0.754 ± 0.072
SHPPPPPSPPPR	0.6922 ± 0.0051
LVGLVCDFVFVL	0.589 ± 0.007
PRPPYPRPPPPP	0.725 ± 0.074

Sequence	protein stability index
VAAKAHPLASMS	0.617 ± 0.11
SVVSFIRRRSFL	0.8656 ± 0.0084
PNRPPLQFFPPP	0.697 ± 0.05
DLVGSWMCGPDL	0.691 ± 0.028
PPSSPPPPDSDR	0.6746 ± 0.0037
PIPPESLHPDHN	0.83 ± 0.038
NHRANSNPRLRY	0.731 ± 0.0095
LDSMSRPGATVS	0.668 ± 0.051
RVSPWSDLSAFL	0.745 ± 0.045
WFKALCPIFCKD	0.62 ± 0.015
SGTVRSTPPHPP	0.664 ± 0.0072
DREVGQGRLTEE	0.6359 ± 0.0018
GLCPCGDAISTR	0.682 ± 0.053
GSWAVQEHMLLE	0.728 ± 0.065
GVAKRGREGCWS	0.569 ± 0.065
LKELDTGVEQDE	0.671 ± 0.0096
LGVVGYGLGGGK	0.707 ± 0.0096
GGGRFRRDRTYE	0.712 ± 0.028
VGFDFLFRFFFL	0.628 ± 0.037
ALPSALPPLPPP	0.723 ± 0.055
PPASPPAPRPPV	0.759 ± 0.018
GMKDKSVRTIKK	0.721 ± 0.0035
CERIGIRHLIKW	0.657 ± 0.036
GAEQSTDEFIRG	0.7058 ± 0.0012
VQYITSGASRWG	0.6309 ± 0.00084

Sequence	protein stability index
EVRGKSVTIFVR	0.57 ± 0.025
DVRPVWGMAGSE	0.742 ± 0.12
GFLCLISSLGFM	0.687 ± 0.051
RLSGWGLGVWQE	0.681 ± 0.042
AWGRWGGGSRVE	0.636 ± 0.02
RCYTLFLGRSRV	0.68037 ± 0.00022
LPPLPPSPPPLP	0.685 ± 0.024
PAPAPPSHFQER	0.717 ± 0.043
ALFPNALYQTLL	0.723 ± 0.05
AVLGDGCGVVGA	0.691 ± 0.072
IGGIIFICTSNK	0.555 ± 0.015
EGYEATYLGVFV	0.706 ± 0.031
PRPLPPPPPLST	0.654 ± 0.061
AGGLCEGGWRGR	0.6885 ± 0.0035
PALSVPPLLPPP	0.604 ± 0.0071
GVCRGSRVGLVP	0.714 ± 0.025
MVEFWDLPGRSC	0.744 ± 0.081
PSPPPPAPRPPP	0.657 ± 0.03
KATIRRGGKKEK	0.682 ± 0.014
KKIKKRQSKENK	0.704 ± 0.015
PVAGSAGVRNLP	0.671 ± 0.012
NRTPTPNQTPPT	0.6798 ± 0.0048
MGLYSNTRNWGS	0.682 ± 0.034
EKSPDYVFRWFR	0.745 ± 0.044
PRSPPSPPPPPS	0.641 ± 0.1

Sequence	protein stability index
VPTLCDQVFLFA	0.627 ± 0.0086
IPLSPLRSPPPR	0.648 ± 0.023
WSSSPAFKPSRR	0.655 ± 0.098
PGRGRQGSGIGM	0.671 ± 0.062
KRKKKRRKETLY	0.641 ± 0.037
VYGRRNVRLNIV	0.582 ± 0.068
PFLLFVSSTCPL	0.605 ± 0.024
GPRGWRASVWAG	0.687 ± 0.07
GLGRRRGVGGVR	0.709 ± 0.0027
AVSHGLFALPFL	0.703 ± 0.012
PGGSVYKPLATA	0.644 ± 0.071
HPGVPGSPFLSC	0.714 ± 0.041
DCRLPSLPPCVA	0.648 ± 0.059
IHPKREPRDNNI	0.679 ± 0.015
LGGRTWTLVRSG	0.64 ± 0.033
PPPRPLQPRPRP	0.6502 ± 0.0019
FSLFSLPFPFPL	0.7752 ± 0.0015
VGLGEGGGVGEG	0.678 ± 0.079
LDPPCPTARLPH	0.61 ± 0.052
LVRFTCRFFVGV	0.589 ± 0.0089
PSPRSPPPSPPS	0.747 ± 0.12
GSDEVGTGWGRL	0.669 ± 0.13
LVTSACPVPPAR	0.5766 ± 0.002
